Source: patent US20080214462

Biological target: factor X (FX), P00742
Sequence (P00742 whole entry, looked up): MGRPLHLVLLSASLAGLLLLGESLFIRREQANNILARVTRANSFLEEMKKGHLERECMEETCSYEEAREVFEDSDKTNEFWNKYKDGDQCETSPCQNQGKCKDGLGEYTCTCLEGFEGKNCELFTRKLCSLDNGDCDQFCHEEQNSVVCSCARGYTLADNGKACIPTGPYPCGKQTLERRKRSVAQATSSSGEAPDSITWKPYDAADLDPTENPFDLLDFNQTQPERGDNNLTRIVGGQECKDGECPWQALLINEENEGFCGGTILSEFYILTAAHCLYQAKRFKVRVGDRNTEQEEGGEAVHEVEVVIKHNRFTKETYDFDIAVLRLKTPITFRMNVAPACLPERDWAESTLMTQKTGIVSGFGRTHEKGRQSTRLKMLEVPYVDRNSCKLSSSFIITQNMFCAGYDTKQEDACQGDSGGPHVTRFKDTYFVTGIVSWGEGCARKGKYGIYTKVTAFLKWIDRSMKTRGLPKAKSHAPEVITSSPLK

Protein	aPTT in FIX-depleted plasma: pdFIXa equivalent activity given for 0.5 µg/mL of FIXa protein (µg/mL pdFIXa activity)
FIXa-Y94F/K98T/Y177F (protein) YNSGKLEEFVQGNLERECMEEKCSFEEAREVFENTERTTEFWKQYVDGDQCESNPCLNGGSCKDDINSYECWCPFGFEGKNCELDVTCNIKNGRCEQFCKNSADNKVVCSCTEGYRLAENQKSCEPAVPFPCGRVSVSQTSKLTRAEAVFPDVDYVNSTEAETILDNITQSTQSFNDFTRVVGGEDAKPGQFPWQVVLNGKVDAFCGGSIVNEKWIVTAAHCVETGVKITVVAGEHNIEETEHTEQKRNVIRIIPHHNFNAAINTYNHDIALLELDEPLVLNSYVTPICIADKEYTNIFLKFGSGYVSGWGRVFHKGRSALVLQYLRVPLVDRATCLRSTKFTIFNNMFCAGFHEGGRDSCQGDSGGPHVTEVEGTSFLTGIISWGEECAMKGKYGIYTKVSRYVNWIKEKTKLT	1
FIXa-Y94F/K98T/Y177F/I213V/E219G (protein) YNSGKLEEFVQGNLERECMEEKCSFEEAREVFENTERTTEFWKQYVDGDQCESNPCLNGGSCKDDINSYECWCPFGFEGKNCELDVTCNIKNGRCEQFCKNSADNKVVCSCTEGYRLAENQKSCEPAVPFPCGRVSVSQTSKLTRAEAVFPDVDYVNSTEAETILDNITQSTQSFNDFTRVVGGEDAKPGQFPWQVVLNGKVDAFCGGSIVNEKWIVTAAHCVETGVKITVVAGEHNIEETEHTEQKRNVIRIIPHHNFNAAINTYNHDIALLELDEPLVLNSYVTPICIADKEYTNIFLKFGSGYVSGWGRVFHKGRSALVLQYLRVPLVDRATCLRSTKFTIFNNMFCAGFHEGGRDSCQGDSGGPHVTEVEGTSFLTGIVSWGEGCAMKGKYGIYTKVSRYVNWIKEKTKLT	14.4
